Laboratory results taken from patent EP4588489A1, “LINKER FOR ANTIBODY-DRUG CONJUGATE AND USE THEREOF” (priority 2022, dated 2024).
Like-named read-outs stand apart in the source and are kept apart here.

What was measured:
Test in all cases: cell-based or functional assay
[1] = molecular target: T1, TROP2 (UniProt P09758 27-323, limits assumed)
T1 sequence (looked up): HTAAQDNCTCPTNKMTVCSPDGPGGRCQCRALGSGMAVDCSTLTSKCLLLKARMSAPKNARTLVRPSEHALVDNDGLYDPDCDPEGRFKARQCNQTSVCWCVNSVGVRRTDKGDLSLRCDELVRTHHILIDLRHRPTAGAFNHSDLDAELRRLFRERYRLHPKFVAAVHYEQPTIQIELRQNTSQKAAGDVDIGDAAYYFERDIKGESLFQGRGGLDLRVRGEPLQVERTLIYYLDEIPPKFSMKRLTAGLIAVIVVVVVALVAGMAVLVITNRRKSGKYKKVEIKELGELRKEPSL

[2] = molecular target: T2, BCMA (UniProt Q02223 1-184, limits assumed)
T2 sequence (looked up): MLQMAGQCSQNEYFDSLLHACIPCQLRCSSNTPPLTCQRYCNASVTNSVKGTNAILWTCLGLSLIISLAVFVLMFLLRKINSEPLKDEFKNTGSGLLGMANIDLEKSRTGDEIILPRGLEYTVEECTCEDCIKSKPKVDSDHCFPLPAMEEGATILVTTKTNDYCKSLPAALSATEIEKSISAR

[3] = molecular target: T2, BCMA; remark: listed apart in the source

Row | Binder | A431 IC50/µg/mL (in vitro cell viability assay) [1] [µg/mL] | EC50(nM), inhibition of MM.1S cell proliferation [2] [nM] | EC50(nM), inhibition of MM.1S cell proliferation [3] [nM] | Relative activity (%), inhibition of MM.1S cell proliferation [3] [%]
1 | ADC01 (Datopotamab conjugated to GGFG-Dxd) (antibody, human IgG1, kappa, V domains shown, linker-drug GGFG-Dxd on cysteines of reduced interchain disulfides; average DAR 3.73) VH: QVQLVQSGAEVKKPGASVKVSCKASGYTFTTAGMQWVRQAPGQGLEWMGWINTHSGVPKYAEDFKGRVTISADTSTSTAYLQLSSLKSEDTAVYYCARSGFGSSYWYFDVWGQGTLVTVSS VL: DIQMTQSPSSLSASVGDRVTITCKASQDVSTAVAWYQQKPGKAPKLLIYSASYRYTGVPSRFSGSGSGTDFTLTISSLQPEDFAVYYCQQHYITPLTFGQGTKLEIKR | 0.11 | – | – | –
2 | ADC04 (hRS7 conjugated to CPD2) (antibody, human IgG1, kappa, V domains shown, linker-drug CPD2 on cysteines of reduced interchain disulfides; average DAR 3.92) VH: QVQLQQSGSELKKPGASVKVSCKASGYTFTNYGMNWVKQAPGQGLKWMGWINTYTGEPTYTDDFKGRFAFSLDTSVSTAYLQISSLKADDTAVYFCARGGFGSSYWYFDVWGQGSLVTVSS VL: DIQLTQSPSSLSASVGDRVSITCKASQDVSIAVAWYQQKPGKAPKLLIYSASYRYTGVPDRFSGSGSGTDFTLTISSLQPEDFAVYYCQQHYITPLTFGAGTKVEIKR | 0.048 | – | – | –
3 | ADC02 (hRS7 conjugated to GGFG-Dxd) (antibody, human IgG1, kappa, V domains shown, linker-drug GGFG-Dxd on cysteines of reduced interchain disulfides; average DAR 3.69) VH: QVQLQQSGSELKKPGASVKVSCKASGYTFTNYGMNWVKQAPGQGLKWMGWINTYTGEPTYTDDFKGRFAFSLDTSVSTAYLQISSLKADDTAVYFCARGGFGSSYWYFDVWGQGSLVTVSS VL: DIQLTQSPSSLSASVGDRVSITCKASQDVSIAVAWYQQKPGKAPKLLIYSASYRYTGVPDRFSGSGSGTDFTLTISSLQPEDFAVYYCQQHYITPLTFGAGTKVEIKR | 0.057 | – | – | –
4 | ADC03 (hRS7 conjugated to CPD1) (antibody, human IgG1, kappa, V domains shown, linker-drug CPD1 on cysteines of reduced interchain disulfides; average DAR 3.82) VH: QVQLQQSGSELKKPGASVKVSCKASGYTFTNYGMNWVKQAPGQGLKWMGWINTYTGEPTYTDDFKGRFAFSLDTSVSTAYLQISSLKADDTAVYFCARGGFGSSYWYFDVWGQGSLVTVSS VL: DIQLTQSPSSLSASVGDRVSITCKASQDVSIAVAWYQQKPGKAPKLLIYSASYRYTGVPDRFSGSGSGTDFTLTISSLQPEDFAVYYCQQHYITPLTFGAGTKVEIKR | 0.074 | – | – | –
5 | ADC05 (hRS7 conjugated to CPD3) (antibody, human IgG1, kappa, V domains shown, linker-drug CPD3 on cysteines of reduced interchain disulfides; average DAR 3.99) VH: QVQLQQSGSELKKPGASVKVSCKASGYTFTNYGMNWVKQAPGQGLKWMGWINTYTGEPTYTDDFKGRFAFSLDTSVSTAYLQISSLKADDTAVYFCARGGFGSSYWYFDVWGQGSLVTVSS VL: DIQLTQSPSSLSASVGDRVSITCKASQDVSIAVAWYQQKPGKAPKLLIYSASYRYTGVPDRFSGSGSGTDFTLTISSLQPEDFAVYYCQQHYITPLTFGAGTKVEIKR | 0.024 | – | – | –
6 | anti-BCMA-005-Hu178-CPD-D4 (antibody, human IgG1, kappa, V domains shown, linker-drug CPD1 on cysteines of reduced interchain disulfides; HIC-DAR 4.24) VH: EVQLVESGGGLVKPGGSLRLSCAASGFTFSNFDMAWVRQAPGKGLEWVASIVTRGDDTYYRDSVRGRFTISRDNAKNTQYLQMNSLRAEDTAVYYCARHDYGGPSGWFGYWGQGTLVTVSS VL: DIQMTQSPSSLSASVGDRVTITCRASQGFSNNLNWYQQKPGKTPKPLIYYTSNLHSGVPSRFSGSGSGTDYSLTISSLQPEDFATYYCQQDASFPPTFGQGTKLEIKR | – | 12.2 | – | –
7 | anti-BCMA-005-Hu178-OMeMMAE-D4 (antibody, human IgG1, kappa, V domains shown, Linker-MMAE derivative 2 on cysteines of reduced interchain disulfides; HIC-DAR 3.79) VH: EVQLVESGGGLVKPGGSLRLSCAASGFTFSNFDMAWVRQAPGKGLEWVASIVTRGDDTYYRDSVRGRFTISRDNAKNTQYLQMNSLRAEDTAVYYCARHDYGGPSGWFGYWGQGTLVTVSS VL: DIQMTQSPSSLSASVGDRVTITCRASQGFSNNLNWYQQKPGKTPKPLIYYTSNLHSGVPSRFSGSGSGTDYSLTISSLQPEDFATYYCQQDASFPPTFGQGTKLEIKR | – | – | 2.42 | 77.1
8 | anti-BCMA-005-Hu178-CPD-D8 (antibody, human IgG1, kappa, V domains shown, linker-drug CPD1 on cysteines of reduced interchain disulfides; HIC-DAR 7.73) VH: EVQLVESGGGLVKPGGSLRLSCAASGFTFSNFDMAWVRQAPGKGLEWVASIVTRGDDTYYRDSVRGRFTISRDNAKNTQYLQMNSLRAEDTAVYYCARHDYGGPSGWFGYWGQGTLVTVSS VL: DIQMTQSPSSLSASVGDRVTITCRASQGFSNNLNWYQQKPGKTPKPLIYYTSNLHSGVPSRFSGSGSGTDYSLTISSLQPEDFATYYCQQDASFPPTFGQGTKLEIKR | – | 4.56 | – | –
9 | anti-BCMA-005-Hu178-vcMMAF-D4 (antibody, human IgG1, kappa, V domains shown, vc-MMAF on cysteines of reduced interchain disulfides; HIC-DAR 3.86) VH: EVQLVESGGGLVKPGGSLRLSCAASGFTFSNFDMAWVRQAPGKGLEWVASIVTRGDDTYYRDSVRGRFTISRDNAKNTQYLQMNSLRAEDTAVYYCARHDYGGPSGWFGYWGQGTLVTVSS VL: DIQMTQSPSSLSASVGDRVTITCRASQGFSNNLNWYQQKPGKTPKPLIYYTSNLHSGVPSRFSGSGSGTDYSLTISSLQPEDFATYYCQQDASFPPTFGQGTKLEIKR | – | – | 1.12 | 166
10 | anti-BCMA-005-Hu178-vcMMAE-D4 (antibody, human IgG1, kappa, V domains shown, vc-MMAE on cysteines of reduced interchain disulfides; HIC-DAR 3.78) VH: EVQLVESGGGLVKPGGSLRLSCAASGFTFSNFDMAWVRQAPGKGLEWVASIVTRGDDTYYRDSVRGRFTISRDNAKNTQYLQMNSLRAEDTAVYYCARHDYGGPSGWFGYWGQGTLVTVSS VL: DIQMTQSPSSLSASVGDRVTITCRASQGFSNNLNWYQQKPGKTPKPLIYYTSNLHSGVPSRFSGSGSGTDYSLTISSLQPEDFATYYCQQDASFPPTFGQGTKLEIKR | – | 2.3 | 1.87 | 100
11 | anti-BCMA-005-Hu178-glucoseMMAE-NC-D4 (antibody, human IgG1, kappa, V domains shown, Linker-MMAE derivative 1 on cysteines of reduced interchain disulfides; HIC-DAR 3.73) VH: EVQLVESGGGLVKPGGSLRLSCAASGFTFSNFDMAWVRQAPGKGLEWVASIVTRGDDTYYRDSVRGRFTISRDNAKNTQYLQMNSLRAEDTAVYYCARHDYGGPSGWFGYWGQGTLVTVSS VL: DIQMTQSPSSLSASVGDRVTITCRASQGFSNNLNWYQQKPGKTPKPLIYYTSNLHSGVPSRFSGSGSGTDYSLTISSLQPEDFATYYCQQDASFPPTFGQGTKLEIKR | – | – | 2.15 | 86.8
